Experimental data from paper PMC9097876 (Science Immunology, 2022).

Target: T1, SARS-CoV-2 spike receptor-binding domain (RBD), original Wuhan isolate (SARS-CoV-2, Wuhan isolate, UniProt P0DTC2)
T1 construct: not shown: His tag, C-terminal, kept
Experiment: BLI
Details: both partners purified

B1: G32Q4 Fab (Fab, V domains shown)
VH: QVQLVESGGGVVQPGRSLRLSCAASGFTFSRYAMQWVRQAPGKGLEWVAVISYDGNNRYYADSVKGRFTISRDNSKNTLYLQMNSLRAEDTAVYYCARGPPGYYDSSGYYQTPEYFQHWGQGTLVTVSS
VL: QSVLTQPPSVSGAPGQRVTISCTGSSSNIGVGYDVHWYQQFPGTVPKLLIYGNSNRPSGVPDRFSGSKSGTSASLAITGLQAEDEADYYCQSYDSSLSGVVFGGGTKLTVL
B1 gave a koff of 0.0066 s⁻¹ and a kon of 1.2e+06 M⁻¹ s⁻¹.
